Experiment: soluble on expression in E. coli; label from the status in PepcDB or PDB records

| Sequence | soluble on expression in E. coli |
| --- | --- |
| MKLMAQLGKLLKEQKYDRQLRLWGDHGQEALESAHVCLINATATGTEILKNLVLPGIGSFTIIDGNQVSGEDAGNNFFLQRSSIGKNRAEAAMEFLQELNSDVSGSFVEESPENLLDNDPSFFCRFTVVVATQLPESTSLRLADVLWNSQIPLLICRTYGLVGYMRIIIKEHPVIESHPDNALEDLRLDKPFPELREHFQSYDLDHMEKKDHSHTPWIVIIAKYLAQWYSETNGRIPKTYKEKEDFRDLIRQGILKNENGAPEDEENFEEAIKNVNTALNTTQIPSSIEDIFNDDRCINITKQTPSFWILARALKEFVAKEGQGNLPVRGTIPDMIADSGKYIKLQNVYREKAKKDAAAVGNHVAKLLQSIGQAPESISEKELKLLCSNSAFLRVVRCRSLAEEYGLDTINKDEIISSMDNPDNEIVLYLMLRAVDRFHKQQGRYPGVSNYQVEEDIGKLKSCLTGFLQEYGLSVMVKDDYVHEFCRYGAAEPHTIAAFLGGAAAQEVIKIITKQFVIFNNTYIYSGMSQTSATFQL | soluble |
| MKLPGPDHPISITANPNGVRISADGKVIAETRRALTLQEASYPPVQYIPREDADMRLLEKTARVTHCPYKGDASYFSIVAGGEPQANAVWSYENPFPAMAEIAGYLAFYPQKVQTEEFKP | not soluble |
| MKLTLEEGTSLVGYVRNVIKQYLKGEEPDIQKYPDKFNNVFGVFVSLHTHPEHDLRGCIGIPEPTMSLIDAIKETSISAAVHDPRFQPLKHSELKNTIIEVSVLTPPEDVEVEDSMEYLEKLEVGRDGLIIEFGPYRGLLLPQVATEYNWDTKQFLSNLCLKAGLPTTAWIEYDVKIKSFQAQVFEELIPNGPVVEKSTYTGCLEHHHHHH | soluble |
| MKLTLKNLSMAIMMSTIVMGSSAMAADSNEKIVIAHRGASGYLPEHTLPAKAMAYAQGADYLEQDLVMTKDDNLVVLHDHYLDRVTDVADRFPDRARKDGRYYAIDFTLDEIKSLKFTEGFDIENGKKVQTYPGRFPMGKSDFRVHTFEEEIEFVQGLNHSTGKNIGIYPEIKAPWFHHQEGKDIAAKTLEVLKKYGYTGKDDKVYLQCFDADELKRIKNELEPKMGMELNLVQLIAYTDWNETQQKQPDGSWVNYNYDWMFKPGAMKQVAEYADGIGPDYHMLIEETSQPGNIKLTGMVQDAQQNKLVVHPYTVRSDKLPEYTPDVNQLYDALYNKAGVNGLFTDFPDKAVKFLNKE | soluble |
| MKLTQLDLSHNNLSVIPTWALTYLHSLQILHLENNRIDVLRSNTFDETQLNNLQFLYLDNNQLRIIPNLAFNHLRLVVLMLANNRITEIQKMSLPQTLKFLVLRNNLLTQIPYVALNDLKTLQSIDLEGNNITHLMDTNEVTFESEMKVILRNNKVRRLDKHSFRSFRKIRELDISYNQIQTVEDSSFETVGHMQSLDLSYNRIAYLPRGMLKNFAKTLKTLKLAENMIHATPEALRDLRNLTHLNLNGNKLNRIDGDVLKGCTDTLVELFIANNYLEHIPHGVLSGMKQLEHLDISKNKIMSLKKPTSLLSITKEETSTVRRLNLAGNRINNMSDYLIFEHMPLLTYVDVSFNRIRFISPRVFEKLKNLESLFLQNNQLAHFPSLFRLDKLRHLMLDNNQIQKIDNFSLADLPKLQHLSLAGNQLDIITENMFGSSSSSELKSLNLAHNKIHSISSRSFSDLDNLQQLRLSHNNIRTITSMTFSNLRNLRYLDLSHNRIIKILPSALYQLPALDVLHLDHNNLNEIDRDAFRSFSDLQSLKLSHNAFRRFSCEFLGSISQVHQLDLSSNQINEIDIFCIARGIRKLSLASNSVEKINRKLLQDATELTSIDISHNGIIDVDSDAFCECRKLSHIKLSHNYIRNLWKGTRVCIPWISHLTTFCFFTKEHLERTISFSYIIVDSSQLTSFGNLSILSFANNKVDSIEDGAFENLLSLKILDLSNNPVTSWSPTAFRDLSHSISSINMANTGLFSMPKFSHRSIQSLNISCNKIYELSEKDLAPLTKVVALDISHNNLKQISSMAFEPLIHLKQLNVSANPITHLTNEHIQQLYKLYNIPDMARPYQISSILSNLPPLHTIYVDIKESALDRQFYTADTRLLRHLVVAGRNLTKIEVGAFATIRGFRVRIEIHNSSIEEFPSRIFDTLTGISILSLSLTDNKLTTFNPFQSTVAPAVNQHGTILHSLELKNNPIKCDCQFKWMDDFIRVTKFLSDHHISHDFDKVECADAQSSNLESFASAANELFSYKTKMTLLSKSEDFGLECAVKYSNPLKPLIYVLMLVCLSYL | not soluble |
| MKMATDDHQPPMVRGRRIKLKYAHAGGYNPPIVVIHGNMVRELPDSYKRYLMNYFRKSLEIMGTPIRINFQNSENPFENRANKLTLSQERKRKRMMSVVKNRKK | not soluble |
| MKMKKITAMSMAALMAATMIPSVPVMADGGGKVYYLNFKPEQDEAWQNLAKAYTEETGTDVTVVTAASGQYETTLQSEMAKSDAPTLFQVNGPVGLKNWKDYCYDLKDADITKELTSDAYELKDGDAVAGIAYVIESYGLITNKTLLEKAGYTLDDIKSFDDLKKVADDIQARKDEIGVKGAFTSAGMDGSSDWRFKTHLANLPIYYEYKADGIDDTEAIKGTYLDQYKNVFDLYITDSTCDGSELSAKTADDSRNEFVNGDAVFYQNGSWEYAELAKTYSDDELAMIPIYFGVDDENEGLATGTENYWCVNKNASEEDVQATLDFMNWCVTSEAGTKSMSEDMGFTIPFKTAVAPTNVFVKQDAEYTEAGLTPVSWNFTTMPSEEWKNGLGTALTAYAAGTGDWDAVVSAFVDGWATEKALSE | not soluble |
| MKMKQVSRSALVSFSAEQMFHLVNDVARYPEFLPGCSGSCVLEQSEAHMVASVDVSKAGISKTFTTSNQLTPGVSIAMSLVDGPFKTLRGGWFFTPLDEAACKVELRLEFEFSSKMIELAFGKIFNELTSNMVNAFTRRAKQVYGEMAGDPLEHHHHHH | not soluble |
| MKNEMLALILAGGQGTRLGKLTQSIAKPAVQFGGRYRIIDFALSNCANSGIHNVGVVTQYQPLALNNHIGNGSSWGLDGINSGVSILQPYSASEGNRWFEGTSHAIYQNIDYIDSVNPEYVLILSGDHIYKMDYDDMLQSHKDNNASLTVAVLDVPLKEASRFGIMNTDANNRIVEFEEKPAQPKSTKASMGIYIFDWQRLRNMLVAAEKSKVGMSDFGKNVIPNYLESGESVYAYEFSGYWKDVGTIESLWEANMEYISPENALDSRNRQWKIYSRNLISPPNFLGANAHVEDSLVVDGCFVDGTVKHSILSTGAQVREGAEVLDSVIMSGAIIGQGAKIKRAIIGEGAIISDGVEIDGTDEVQVVGYNEVVGVATDED | not soluble |
| MKNIKEKGSQALKITATVFILAVICMSSAASAANLHVDPEAEEGYTTIQAAVDAANAGDTIFVSPGTYVENLKIDKQVRIWSDSRNPENTIVRPSDPAESPVEITGERVTFSGFGVEDSEKAGILLSGATSCFINNNRAQNSKYGILLQDAESNNINGNVITLNEAGLRLESSRSNTIQDNLIAYNYGPGISLEESSRNIFFNNYFKNAENIEENAANADNTWQSTLTVKRNLIRGPYIGGNFWADIEGTGYSETCEDKNSNGICDASYTLNGGGSDNSPLFPKVPSAVTALENKLDAEAYELGMETRGVEVNETENPAGEQTGENGPEGEENKTAETEASENGTPAPGIGFAIMAAGAAYFLKRRKAAALEHHHHHH | not soluble |
| MKNKLPPFIEIYRALIATPSISATEEALDQSNADLITLLADWFKDLGFNVEVQPVPGTRNKFNMLASTGQGAGGLLLAGHTDTVPFDDGRWTRDPFTLTEHDGKLYGLGTADMKGFFAFILDALRDVDVTKLKKPLYILATADEETSMAGARYFAETTALRPDCAIIGEPTSLQPVRAHKGHISNAIRIQGQSGHSSDPARGVNAIELMHDAIGHILQLRDNLKERYHYEAFTVPYPTLNLGHIHGGDASNRICAWCELHMDIRPLPGMTLNELNGLLNDALAPVSERWPGRLTVDELHPPIPGYECPPNHQLVEVVEKLLGAKTEVVNYCTEAPFIQTLCPTLVLGPGSINQAHQPDEYLETRFIKPTRELITQVIHHFCWH | soluble |
| MKNKNDQHLRLQQQIIHYRSEAASCRQQVQQLEAELAKEKMRSAYLKEKLREAETTNVETYKKKIAALERQLLLCEIALEETRYNTSKETQTPAFERAAAVSALFHYSVVVPTHLDEEELTIIGDFIIRNHGTAPLHHLIVCLRLSPPKTAVLSGKIVLPNSGRAEQEALISNSAESWTFTQENWREKVRQSGEYWLAPLYDAPLEPGEERRFSQFEITVPPSSNARSLTVDGFVYCAELPKGVPAANHIAIQW | not soluble |
| MKNLPIGGVWKGKVKLHSNSPAQDYFANITLNTLDPNHIDVFFPEFAHATPRVQLDLHPTGSVNGSNYAQDLTMLDMCLYDGFNGNAISYEIMLKDEGRPAAGRRDGYFSIYRQGGTTTDEGERIDYRVKMYNPETGGQIDVRNNENMVWNSINLKRVRPVVLPGIRYAVMCVPTPLTLAVDKFSVMDKQAGYYMGKLSVIFTPSLPTIN | not soluble |
| MKNNPKTRYPLRLEESYAKNIQKAVKEIEKVSLYEFDKYLAPMIDDKNIVNDSNLINDGLFDAASKLIRNAQTYFLGILQNRTAQKIVRKHINSVNAFNKSNVNSQLSARGINPLQTEKWLDSYVQAKIAENISYVTNIRDDYSKKFEQVIYRGITEGKSSNEIREELVHQAGMSSDKAAFIARDQTGTILGQMNSERQKRAGFQAFRWSDSGDERVRDSHRERNGKIYFYADNPLLPGEEYNCRCVAEPVDDEELLEESIDLGLSNQEEHAVKTYVSSEAYKLNDKLRNGYQLDESDLKLIDNLDKALGKMTNYDGEVTRSMFFDSSDDLVRFANNYNLNDVVQFPEYISTTKDIYSEQDSLRFVIMSSTGKDLGSYNKSEKEVLFNRDAKFIVKDRYLLDGKPFIVLEEYHE | not soluble |
| MKNPQSKADDILQCARTLIIRGGYNSFSYADISQVVGIRNASIHHHFPSKSDLVCKLVSQYRQEAEAGIAELEKNISDPLEQLRAYIGYWEGCIADATHPFCVCALLASEIPVLPETVVLEVRAHFRSLSDWLTAVLERGIAQGRLVLTGTARANAEIFMATVHGAMLSARAHGDAATFGAITRPMLERITA | soluble |
| MKNVGDVGDLCTGCGTCAAMCPLESVVMRIDHDRGVYEPLVDGECDGCGVCLRVCPGVGVDFTDLNMRVFGREPDDMLMGNYEECYIAHSRDDELRYGASSGGMISQILIYLLEEGLIDGALVTRMNPERPLEPEPFIARTPSEIIESRGSKYCPVPANVALKEILEVPGRYAVVGLPCHIHGVRKAEVISRKLRERIVYHLGIVCNHAPSFRATEFLLERLGVDPGDVKSIRYRGEGWPGSLRVETESGDLLLLPEYWGSGFGQLFMPERCRLCADHMAELSDISFADPWLKELKDEKKGRTLVIIRKWPEKFAGILKGGICEMDKIKPEKALLSQIYNIYMKKKLCRRSMYNGSFPEIDFIDRIILSFEPSRLKIPWTIKRRYIFFYSMIVALKARMDFLGDSKLEHHHHHH | soluble |
| MKNVLILGAGGQIARHVINQLADKQTIKQTLFARQPAKIHKPYPTNSQIIMGDVLNHAALKQAMQGQDIVYANLTGEDLDIQANSVIAAMKACDVKRLIFVLSLGIYDEVPGKFVEWNNAVIGEPLKPFRRAADAIEASGLEYTILRPAWLTDEDIIDYELTSRNEPFKGTIVSRKSVAALITDIIDKPEKHIGENIGINQPGTDGDKPFFM | soluble |
| MKPAIKRACLLGTALFSLCASAAQAAGVLVGTWDLRGNGQLAAVYRDGANLQVVEGGSTRNYSFGNVVWSVFGATDTDGQPGAEILVKAGPDLVIVSHASTTQRKYPVGNVSWAIMRATDVDNVAGDEVILSIGNGVRTVFDRTRTQRDATFSYNGTWGLFDVADVDGAPGKELVLNMGNGVKVIDPRTSGAKDFTFSGYHALAQIADLDGQPGAEIIGRTSTGIYVISNASSRKEYSIGASAWALYGGTADTDGKPGNELIVVMQGKVRVIHHASGASSDYRIGDVNYSIDSVADMDGQPGAEILVRDANGKLFVINDRTGKVSS | not soluble |

Reference: the DeepSol protein solubility set
